Patent US20140302123A1

How the values were obtained:
[1] = biological target: T1, PTPN4-PDZ (residues G499-N604) (human), P29074; test: NMR titration, 15N-labeled PTPN4-PDZ with unlabeled peptide
T1 chain: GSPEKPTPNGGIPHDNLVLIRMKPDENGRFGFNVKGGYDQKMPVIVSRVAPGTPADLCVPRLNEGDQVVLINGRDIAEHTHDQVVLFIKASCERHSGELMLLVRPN

[2] = biological target: T1, PTPN4-PDZ (residues G499-N604) (human), …; test: NMR titration

Binder	Kd [1] [µM]	fold increase in affinity against Cyto13-att [2] [fold]
LNLGNDPDRGTSI (modifications not checked) [GluD2-13]	128	–
SNRRVYKKMPSIESDV (modifications not checked) [GluN2A-16]	42	4
SWESYRSGGEIRL (modifications not checked) [EIRL-13]	1170	–
